Columns and labels:
[1] = biological target: oxidized bovine insulin B chain, P01317
[2] = biological target: T1, peptide derived from the processing site of presenilin 1 (SVNM/AEGD)
T1 chain: SVNMAEGD

[3] = biological target: T2, synthetic peptide Nch (VGSGVLLSRK)
T2 chain: VGSGVLLSRK

[4] = biological target: T3, synthetic peptide PS1-gamma (LVNMAEGD)
T3 chain: LVNMAEGD

[5] = biological target: T4, synthetic peptide derived from the APP beta-secretase site (SEVKM/DAEFR)
T4 chain: SEVKMDAEFR

[6] = biological target: T5, synthetic peptide derived from the APP beta-secretase site containing the Swedish mutation (SEVNL/DAEFR)
T5 chain: SEVNLDAEFR

oxidized bovine insulin B chain, P01317, sequence (P01317 25-54): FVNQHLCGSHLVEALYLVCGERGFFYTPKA

B1: M2pd (modified M2 containing amino acids from Ala-8p to Ala326) (protein)
chain: TQHGIRLPLRSGLGGAPLGLRLPRETDEEPEEPGRRGSFVEMVDNLRGKSGQGYYVEMTVGSPPQTLNILVDTGSSNFAVGAAPHPFLHRYYQRQLSSTYRDLRKGVYVPYTQGKWEGELGTDLVSIPHGPNVTVRANIAAITESDKFFINGSNWEGILGLAYAEIARPDDSLEPFFDSLVKQTHVPNLFSLQLCGAGFPLNQSEVLASVGGSMIIGGIDHSLYTGSLWYTPIRREWYYEVIIVRVEINGQDLKMDCKEYNYDKSIVDSGTTNLRLPKKVFEAAVKSIKAASSTEKFPDGFWLGEQLVCWQAGTTPWNIFPVISLYLMGEVTNQSFRITILPQQYLRPVEDVATSQDDCYKFAISQSSTGTVMGAVIMEGFYVVFDRARKRIGFAVSACHVHDEFRTAAVEGPFVTLDMEDCGYNIPQTDESTLMTIAYVMAAICALFMLPLCLMVCQWRCLRCLRQQHDDFADDISLLK
**Q.** For B1, which cleavage of proteins (Native proteins) is on record?
**A.** The cleavage of proteins was “Native proteins were not cleaved by M2pd”.

**Q.** And the hydrolytic sites [1]?
**A.** Its hydrolytic sites is 2 sites.

**Q.** What about the Km [2] of the same protein?
**A.** Its Km is “Km, 15.2 mM”.

**Q.** And the kcat [2]?
**A.** Its kcat is “kcat, 0.67 s^-1”.

**Q.** And the kcat/Km [2]?
**A.** The kcat/Km was “kcat/Km, 43.8 s^-1M^-1”.

**Q.** What about the hydrolytic sites [3] of the same protein?
**A.** Its hydrolytic sites is 3 sites.

**Q.** And the hydrolytic sites [4]?
**A.** The hydrolytic sites was “A single cleavage site was observed in synthetic peptide PS1-gamma”.

**Q.** What about the kcat/Km [5] of the same protein?
**A.** Its kcat/Km is “kcat/Km, 39.9 s^-1M^-1”.

**Q.** What about the Km [6] of the same protein?
**A.** The Km was “Km, 1 mM”.

**Q.** What about the “fold increase of kcat/Km over native APP” value [6] of the same protein?
**A.** The value was 60-fold increase of kcat/Km over that for native APP.

**Q.** What about the kcat [6] of the same protein?
**A.** The kcat was “kcat, 2.45 s^-1”.

**Q.** And the kcat/Km [6]?
**A.** Its kcat/Km is “kcat/Km, 2450 s^-1M^-”.

From US20040220079
